Results as given in PMC5540112 (mAbs, 2017).
Positions count from the first letter of the chain named. Values belong to the binder of their own block, whether it stands above or below them.

What was measured:
[1] = target: T1, Recombinant GPVI-Fc (extracellular domain of human GPVI fused to human IgG1 Fc domain) (Homo sapiens, UniProt Q9HCN6); test: ELISA
[2] = target: T1, Recombinant GPVI-Fc (extracellular …); test: SPR

T1 sequence (Q9HCN6 21-267): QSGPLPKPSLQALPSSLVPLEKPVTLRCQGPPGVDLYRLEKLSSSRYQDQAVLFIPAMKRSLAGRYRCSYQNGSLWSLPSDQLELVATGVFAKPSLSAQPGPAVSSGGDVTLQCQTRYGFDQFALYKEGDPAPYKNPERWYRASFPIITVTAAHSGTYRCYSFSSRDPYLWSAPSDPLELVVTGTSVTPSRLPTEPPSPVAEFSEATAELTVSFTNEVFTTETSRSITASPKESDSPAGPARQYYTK

B1: ACT010, humanized anti-GPVI Fab (VL3b + VH3) (Fab, V domains shown)
VH: QVQLVQSGAEVKKPGASVKVSCKASGYTFTSYNMHWVRQAPGQGLEWMGGIYPGNGDTSYNQKFQGRVTMTRDTSTSTVYMELSSLRSEDTAVYYCARGTVVGDWYFDVWGQGTLVTVSS
VL: DIVMTQTPLSLSVSVGERVTITCKSSQSLENSNGNTYLNWYLQKPGQAPQLLIYRVSNRFSGVPDRFSGSGSGTDFTLTISRVEAEDVGVYYCLQLTHVPWTFGQGTKLEIK
- binding result [1]: binds

B2: ACT005, humanized anti-GPVI Fab (VL2b + VH2) (Fab, V domains shown)
VH: EVQLVESGGGLVQPGGSLRLSCAASGYTFTSYNMHWVRQAPGKGLEWVGGIYPGNGDTSYNADFKRRFTFSLDTSKSTAYLQMNSLRAEDTAVYYCARGTVVGDWYFDVWGQGTLVTVSS
VL: DIQMTQSPSSLSASVGDRVTITCSASQSLENSNGNTYLNWYQQKPGKAPKLLIYRVSNRFSGVPSRFSGSGSGTDFTLTISSLQPEDFATYYCLQLTHVPWTFGQGTKVEIK
- Kd [2]: < 25 nM

B4: ACT016, humanized anti-GPVI Fab (VL8b + VH2) (Fab, V domains shown)
VH: B2 VH
VL: B2 VL with S24R, A25S, L78F, F88I, K112T
- Kd [2]: < 25 nM

B6: Fab 9O12, Fab fragment of the mouse monoclonal IgG1,k 9O12 (Fab, V domains shown)
VH: QVQLQESGAELVKPGASVKMSCKASGYTFTSYNMHWVKQTPGQGLEWIGGIYPGNGDTSFNQKFKGKATLTADKSSRTAYMQLSSLTSEDSAVYYCARGTVVGDWYFDVWGAGTTLTVSS
VL: DVLMTQTPLSLPVSLGDQASISCRSSQSLENSNGNTYLNWYLQKPGQSPQLLIYRVSNRFSGVLDRFSGSGSGTDFTLKISRVEAEDLGVYFCLQLTHVPWTFGGGTKLEIK
- Kd [2]: 17 nM

Next, values leading:

- Kd [2]: 4.1 nM
B3: ACT017, humanized anti-GPVI Fab (VL8b + VH3) (Fab, V domains shown)
VH: B1 VH
VL: B2 VL with S24R, A25S, L78F, F88I, K112T

- Kd [2]: < 8 nM
B5: ACT006, humanized anti-GPVI Fab (VL2b + VH3) (Fab, V domains shown)
VH: B1 VH
VL: B2 VL
